This note sets out measurements from patent publication US20070243194A1 (Biogen, published 2007).

A value given as a limit tells only on which side of the number the result lay.

The target of this assay is human IGF-1R on cells (human, UniProt P08069 31-740; P08069 741-1367). Put plainly: cell-based or functional assay.
Chain of human IGF-1R on cells (P08069 31-740, chain 1 of 2): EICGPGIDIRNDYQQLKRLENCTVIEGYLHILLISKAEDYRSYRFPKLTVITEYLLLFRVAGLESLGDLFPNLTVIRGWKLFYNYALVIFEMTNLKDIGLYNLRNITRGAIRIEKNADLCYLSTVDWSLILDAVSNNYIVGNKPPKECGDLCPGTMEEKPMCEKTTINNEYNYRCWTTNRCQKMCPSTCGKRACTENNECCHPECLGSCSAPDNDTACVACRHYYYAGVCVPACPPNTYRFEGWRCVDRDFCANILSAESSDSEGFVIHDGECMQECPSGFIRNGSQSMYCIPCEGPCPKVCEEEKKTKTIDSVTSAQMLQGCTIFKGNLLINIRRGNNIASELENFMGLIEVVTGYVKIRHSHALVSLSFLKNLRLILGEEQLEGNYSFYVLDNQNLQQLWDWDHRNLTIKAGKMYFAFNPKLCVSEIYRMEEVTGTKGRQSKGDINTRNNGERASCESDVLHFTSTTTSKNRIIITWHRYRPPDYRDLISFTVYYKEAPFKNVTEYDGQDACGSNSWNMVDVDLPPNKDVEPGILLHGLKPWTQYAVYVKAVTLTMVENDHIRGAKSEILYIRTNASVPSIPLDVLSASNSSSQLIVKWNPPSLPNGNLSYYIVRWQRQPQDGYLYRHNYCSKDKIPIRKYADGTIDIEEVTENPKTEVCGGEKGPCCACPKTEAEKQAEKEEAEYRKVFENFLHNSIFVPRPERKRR
Chain of human IGF-1R on cells (P08069 741-1367, chain 2 of 2): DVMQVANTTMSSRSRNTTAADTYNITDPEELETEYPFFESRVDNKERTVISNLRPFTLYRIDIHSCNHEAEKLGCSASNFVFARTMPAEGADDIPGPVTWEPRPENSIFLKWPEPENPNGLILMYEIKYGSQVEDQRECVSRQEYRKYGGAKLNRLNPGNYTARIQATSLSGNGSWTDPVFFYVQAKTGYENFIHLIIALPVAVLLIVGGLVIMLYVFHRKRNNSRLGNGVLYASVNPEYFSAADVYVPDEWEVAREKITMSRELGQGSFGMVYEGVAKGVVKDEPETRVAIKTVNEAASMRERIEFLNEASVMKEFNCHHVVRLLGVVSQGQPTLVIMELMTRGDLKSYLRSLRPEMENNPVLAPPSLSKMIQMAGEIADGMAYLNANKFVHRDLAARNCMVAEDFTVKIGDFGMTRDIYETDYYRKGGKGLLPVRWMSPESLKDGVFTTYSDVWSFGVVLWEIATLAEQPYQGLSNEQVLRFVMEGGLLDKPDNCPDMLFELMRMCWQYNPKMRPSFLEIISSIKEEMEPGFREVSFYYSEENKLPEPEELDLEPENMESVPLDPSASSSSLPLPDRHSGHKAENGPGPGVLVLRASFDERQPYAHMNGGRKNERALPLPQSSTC

B1: M14-C03.G4.P.agly (antibody, human IgG4 S228P, kappa, V domains shown)
VH: EVQLLESGGGLVQPGGSLRLSCAASGFTFSKYMMSWVRQAPGKGLEWVSYISPSGGLTWYADSVKGRFTISRDNSKNTLYLQMNSLRAEDTAVYYCARDGARGYGMDVWGQGTTVTVSS
VL: DIQMTQSPATLSLSPGERATLSCRASQSVSSYLAWYQQKPGQAPRLLIYDASNRATGIPARFSGSGSGTDFTLTISSLEPEDFAVYYCQQRSNWPPEVTFGPGTKVDIKR
For the molecule B1, the “inhibition of IGF-1 and IGF-2 mediated IGF-1R receptor phosphorylation, EC50” value (from here on “inhibition”) was less than 1 nM.

B2: M14-G11.G4.P (antibody, V domains shown)
VH: EVQLLESGGGLVQPGGSLRLSCAASGFTFSNYPMYWVRQAPGKGLEWVSRISSSGGRTVYADSVKGRFTISRDNSKNTLYLQMNSLRAEDTAVYYCARDRWSRSAAEYGLGGYWGQGTLVTVSS
VL: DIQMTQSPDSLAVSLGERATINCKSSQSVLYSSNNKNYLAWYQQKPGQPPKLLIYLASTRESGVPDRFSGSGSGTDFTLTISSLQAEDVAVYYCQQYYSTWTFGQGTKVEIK
As for B2, the “inhibition” value was less than 1 nM.

B3: M13-C06.G4.P.agly (antibody, human IgG4 S228P, kappa, V domains shown)
VH: EVQLLESGGGLVQPGGSLRLSCAASGFTFSIYRMQWVRQAPGKGLEWVSGISPSGGTTWYADSVKGRFTISRDNSKNTLYLQMNSLRAEDTAVYYCARWSGGSGYAFDIWGQGTMVTVSS
VL: DIQMTQSPLSLSASVGDRVTITCQASRDIRNYLNWYQQKPGKAPKLLIYDASSLQTGVPSRFGGSGSGTDFSFTIGSLQPEDIATYYCQQFDSLPHTFGQGTKLEIKR
For the molecule B3, the “inhibition” value is less than 1 nM.
